Assay results taken from article PMC4764983.

Target: histone deacetylase 1 (HDAC1), endogenous mouse (mouse (endogenous in C3H10T1/2 and STO)) (UniProt O09106)
Chain of UniProt O09106 (O09106 whole entry): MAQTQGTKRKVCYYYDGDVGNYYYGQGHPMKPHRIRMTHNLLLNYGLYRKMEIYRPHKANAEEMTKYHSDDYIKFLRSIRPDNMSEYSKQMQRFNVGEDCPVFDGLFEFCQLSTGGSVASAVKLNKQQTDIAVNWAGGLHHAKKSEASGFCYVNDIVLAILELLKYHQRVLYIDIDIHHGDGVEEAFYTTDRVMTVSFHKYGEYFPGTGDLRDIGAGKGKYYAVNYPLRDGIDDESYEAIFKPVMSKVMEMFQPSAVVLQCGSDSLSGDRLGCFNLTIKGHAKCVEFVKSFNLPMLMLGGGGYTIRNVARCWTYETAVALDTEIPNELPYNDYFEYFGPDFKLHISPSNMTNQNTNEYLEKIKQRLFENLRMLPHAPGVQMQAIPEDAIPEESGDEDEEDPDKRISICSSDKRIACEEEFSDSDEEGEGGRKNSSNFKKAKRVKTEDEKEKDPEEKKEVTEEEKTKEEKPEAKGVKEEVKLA

fold increase in AXIN2 message (Q-PCR) after treatment with the HDAC inhibitor TSA in C3H10T1/2^SS18-SSX1-V5 cells, compared to a 6 fold increase in C3H10T1/2^pLIVc: 3 fold
Substance: V5-tagged SS18-SSX1 fusion protein
